Assay results as given in patent US11733246B2, “Compositions, imaging, and therapeutic methods targeting folate receptor 1 (FOLR1)” (Indi Molecular, Inc., priority 2020, dated 2023).
Numbered stars: 1 amine (or outer) side, 2 acyl side, 3 side chain; on linkers, the order of the positions; unused ones are H or OH. Bridge positions count the residues as written; N and C are the ends. Square brackets hold non-standard residues; d marks the D form. Triazole bridges read from a SMILES are 1,4-linked. Ends that are not written are not given here. Peptide text beside a SMILES is read from it. * marks the point of attachment. DOTA = O=C(O)CN1CCN(CC(=O)O)CCN(CC(=O)*)CCN(CC(=O)O)CC1; Pteroyl = Nc1nc2ncc(CNc3ccc(C(=O)*)cc3)nc2c(=O)[nH]1; Butanoyl(4-(4-MePh)) = Cc1ccc(CCCC(=O)*)cc1; Lys(N3) = [N-]=[N+]=NCCCC[C@H](N)C(=O)O; γGlu = O=C(O)[C@H](CCC(=O)[*:2])N[*:1]; AEEEA = NCCOCCOCCOCC(=O)O; Pra = C#CC[C@H](N)C(=O)O; X2 = NOCC(=O)*

Legend:
[1] = tested on: OVCAR3 (FOLR1+) tumor bearing NSG mice; assay: in vivo; conditions: mouse
Procedure: (§1) Female, 7-week-old NSG mice were housed under pathogen-free conditions. Water and food were provided ad libitum. To create mice with FOLR1+ ovarian xenograft tumors, mice were injected subcutaneously with OVCAR3 cells (1×10^7 cells per mouse) resuspended in 50% Matrigel in PBS into the shoulder region. Tumor growth was monitored by caliper measurements. OVCAR3 is a human ovarian adenocarcinoma known to over-express FOLR1.
(§2) ^68Ga PET imaging was used to study in vivo biodistribution of heterobiligands in non-tumor bearing (healthy) mice and OVCAR3 tumor bearing mice. 100-200 μCi of [^68Ga]DOTA-labeled heterobiligand was administered intravenously (i.v.) via the tail vein of each mouse. Dynamic PET imaging was performed from 0-1 h, followed by acquisition of static PET images at 2 h and 4 h post-injection. CT scans were acquired for anatomical reference. Imaging was performed on an Inveon microPET/CT small animal scanner. The PET signal was quantitated by three-dimensional ROI analysis and represented as percent injected dose (% ID) vs. time ([…]) for major organs including tumor, liver, heart, lung, bladder, and kidney.
(§3) Evaluation of a folate-hshta (SEQ ID NO:6) Nterm heterobiligand bearing both an albumin binder and DOTA chelator in PET was a priority, given that DOTA can accommodate both ^68Ga for imaging and ^177Lu for radiotherapy. A 200 μCi dose of ^68Ga-labeled folate-hshta-PEG3-Lys(MPBA)-Lys(DOTA) (SEQ ID NO:6) (compound #2809) was injected i.v. via tail vein in an NSG mouse bearing s.c. human OVCAR3 (FOLR1+) tumor. ^68Ga PET/CT imaging scans were performed at 0-1 h (dynamic), 2 h (static), and 4 h (static). […] The time-course biodistribution of ^68Ga-labeled folate-hshta-PEG3-Lys(MPBA)-Lys(DOTA) (SEQ ID NO:6) (compound #2809) was calculated to quantify the uptake in major organs including the tumor (FIG. 17). […] Larger tumors (490 mm^3) were also evaluated with the ^68Ga-chelated PET probe.
(§4) Images were captured for compound #1307 at the time points 5 min, 10 min, 15 min, 30 min, 1 h, 2 h, and 4 h. PET/CT images were taken following the injection of 4 female NSG mice with ^68Ga-chelated compound #2809. […] Images for mouse 4 are shown in FIG. 23 (Compounds #1307 and #2809) and FIG. 24 (Compound #1307).
(§5) Biodistribution was initially evaluated by PET imaging, as the time frame for a significant portion of clearance is roughly similar to the time frame of PET imaging experiments. Indi ^68Ga-7327 was injected via the tail vein into OVCAR3 (FOLR+) tumor implanted female NSG mice once the tumor size reached 200 mm^3, and microPET/CT scans were acquired at 5 min, 10 min, 15 min, 30 min, 1 h, 2 h, and 4 h post-injection. PET images were corrected for CT-based photon attenuation, detector normalization and radioisotope decay and converted to units of percent injected dose per cc (% ID/cc).

[2] = in vivo; conditions: female, NSG, mouse, iv, total radioactivity
Procedure: as §1, §2, §3, §4, §5

[3] = molecular target: human recombinant NEP (Homo sapiens, UniProt P08473); type: biochemical
Chain of human recombinant NEP (P08473 whole entry): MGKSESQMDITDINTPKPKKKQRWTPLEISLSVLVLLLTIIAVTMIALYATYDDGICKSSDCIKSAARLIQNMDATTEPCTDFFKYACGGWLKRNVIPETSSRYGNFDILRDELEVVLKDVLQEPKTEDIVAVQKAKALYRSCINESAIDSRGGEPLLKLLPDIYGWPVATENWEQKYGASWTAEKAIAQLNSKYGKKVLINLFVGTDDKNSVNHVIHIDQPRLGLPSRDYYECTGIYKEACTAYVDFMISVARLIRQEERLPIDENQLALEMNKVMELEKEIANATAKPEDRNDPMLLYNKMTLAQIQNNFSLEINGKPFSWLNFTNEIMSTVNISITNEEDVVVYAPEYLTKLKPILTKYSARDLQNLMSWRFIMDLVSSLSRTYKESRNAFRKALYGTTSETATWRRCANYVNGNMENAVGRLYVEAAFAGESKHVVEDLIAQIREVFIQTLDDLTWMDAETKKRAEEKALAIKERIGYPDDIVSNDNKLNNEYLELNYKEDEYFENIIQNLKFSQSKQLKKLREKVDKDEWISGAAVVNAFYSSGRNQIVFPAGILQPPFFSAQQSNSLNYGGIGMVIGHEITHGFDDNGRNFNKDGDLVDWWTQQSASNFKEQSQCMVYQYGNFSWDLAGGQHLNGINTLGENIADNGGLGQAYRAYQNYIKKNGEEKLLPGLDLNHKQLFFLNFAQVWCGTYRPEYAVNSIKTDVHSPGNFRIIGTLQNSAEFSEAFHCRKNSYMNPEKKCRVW
Procedure: In order to test the susceptibility of GFK and MVK linkers to NEP-mediated cleavage, the peptide (Folate-hshta-Lys(MPBA)-Gly-Phe-Lys(DOTA) (SEQ ID NO:6)) was incubated with human recombinant NEP and analyzed the solution for the presence of cleaved adducts. MALDI was utilized to monitor the cleavage of a PCC heterobiligand that contains a NEP protease recognizable sequence (G-F-K). The PCC concentration was constant and the NEP concentration was titrated down from 10 nM to 1 nM, 0.1 nM, 0.01 nM, and no NEP. The NEP-mediated cleaved adduct was identified by mass. 10 μM PCC containing the GFK linker was combined with varying amounts of NEP. […] Below 0.1 nM no cleavage was observed. • Folate-hshta-Lys(MPBA)-Gly-Phe-Lys(DOTA) (SEQ ID NO:6) • Molecular weight 2231.42
The NEP-mediated cleavage was also monitored by HPLC. In agreement with the MALDI spectra, the HPLC chromatograms show depletion of the parent brush-border heterobiligand (retention time 17.1 minutes), dose-dependent on the amount of NEP spiked into the sample (10 nM, 1 nM, 0.1 nM, 0.01 nM, and no NEP). An appearance of a new peak (retention time 16.5 minutes) in concert with the depletion of the starting material is presumed to be the cleaved folate-containing peptide.
In order to test the specificity of NEP, a non-cleavable linker (PEG3) was also assayed.
To reduce the radioactive dose to the kidney, Indi ^177Lu-7327 was constructed to incorporate a GFK linker that is susceptible to cleavage by enzymes found predominately in the kidney's brush border. These enzymes cleave off the radionuclide-chelator complex, which is quickly eliminated by the kidney for excretion in the urine. The zinc metalloprotease neprilysin (NEP) is expressed with high abundance in the kidney. […] To confirm NEP-mediated cleavage of the GFK linker in Indi 7327, the peptide was incubated with recombinant human NEP at 37° C. for 1 h and analyzed by matrix-assisted laser desorption/ionization mass spectrometry (MALDI-MS) for the evolution of cleaved adducts (FIG. 42). […] The expected cleaved adduct (mass: 1283.16 m/z) appears in the samples containing 10, 1.0, and 0.1 nM NEP. […] Below 0.1 nM NEP, no cleavage was observed. In addition to confirming the selectivity of NEP for the GFK linker, it is also important to note that the remaining portions of the Indi 7327 were impervious to the enzyme.

[4] = Plasma stability, mouse; conditions: CD-1, mouse, pH 7.4, Plasma Stability (t 1/2), Mu, AO construct marked (FB)
[5] = Plasma stability, human; conditions: pH 7.4, Plasma Stability (t 1/2), Hu, AO construct marked (FB)
Procedure: Plasma was thawed in a 37° C. water bath. Residual clots were removed via centrifugation at 4000 rpm for 5 minutes. The pH of the plasma was adjusted to 7.4 if required. Test articles were diluted to 100 μM by diluting a 1 mM working solution (in DMSO) with 45% methanol in water. To 98 μL of plasma was added 2 μL of the 100 μM solution, resulting in 2 μM final concentration of the test article. Samples were incubated at 37° C. in a water bath. At the indicated time points (0, 10, 30, 60, 120 minutes) 100 μL of 4% H3PO4 was added followed by 800 μL of stop solution (200 ng/mL tolbutamide and 200 ng/mL labetalol in 100% acetonitrile). The samples were centrifuged and the plasma protein-free supernatant (100 μL) was subjected to LC-MS/MS analysis.

[6] = tested on: OVCAR3 FOLR1+ cells; assay: Flow cytometry binding to FOLR1 (+) cells; type: cell-based, human; conditions: 40 nM of the test article
[7] = tested on: OVCAR3 FOLR1+ cells; assay: Flow cytometry binding to FOLR1 (+) cells; type: cell-based, human; conditions: OVCAR3 vs PC-3, flow cytometry
Procedure: Both the kyeet (SEQ ID NO:9) and hshta (SEQ ID NO:6)-derived biligands were tested by flow cytometry for binding to FOLR1 (+) and FOLR1 (−) cell lines (FIGS. 6 and 7). The human ovarian adenocarcinoma-derived cell line OVCAR3 has robust FOLR1 expression and was selected as the FOLR1 (+) cell line. The human prostate adenocarcinoma-derived cell line PC-3 was selected as a FOLR1 (−) cell line.
Competition at the cellular level was also probed.
Increasing the serum-bound fraction of the peptide may decrease first pass removal of the heterobiligand, and drive compound retention of tumor over kidney. Constructs bearing the known albumin binder 4-methylphenyl butyric acid (4-MPBA) were synthesized. These compounds were evaluated in vitro to verify binding fidelity to FOLR1. The modified heterobiligands were incubated at 400 nM with OVCAR3 and PC-3 cells for 20 minutes at 37° C. in complete media containing 20% FBS. They both bind to OVCAR3 FOLR1+ cells with similar binding affinities as the original heterobiligand studied (FIG. 14). […] Similar activity of these heterobiligands is anticipated in vivo.

[8] = molecular target: human serum albumin (Homo sapiens, UniProt P02768); conditions: read-out: affinity for human serum albumin; cited from earlier work
[9] = tested on: OVCAR3 cells; assay: Cell internalization assay (acid wash, flow cytometry); type: cell-based, human; conditions: OVCAR3 cell line
Procedure: FIG. 10 is a diagram of an assay for assessing cell internalization FOLR1 heterobiligands.
The folate-hshta (SEQ ID NO:6) Nterm heterobiligand was also evaluated in cell penetration imaging assays (FIG. 10). OVCAR3 and PC-3 cells were incubated with the test article at 37° C. for 1 hour. Flow cytometry analysis of the resulting treated cells indicated strong binding to FOLR1 (+) cells. To understand the proportion bound to the surface but not internalized, the cells were briefly washed with acid to liberate the non-internalized peptide.
(§6) Nonclinical studies were first conducted with Folate-hshta-PEG10-PEG10-K(Biotin), where Folate-hshta is the targeting heterobiligand, PEG10 is a deca(ethylene glycol) linker, and K(Biotin) is the detection label. […] Cross reactivity with the murine folate receptor was also observed. […] In the merged image, purple puncta were observed indicating co-localization of internalized heterobiligand with early endosomes (Rab5a+ vesicles) in OVCAR3 cells.

[10] = tested on: OVCAR3 (FOLR+) cells; assay: Fluorescence microscopy / live cell imaging of dye-labeled heterobiligand; type: cell-based, human; conditions: DyLight 650 label, OVCAR3 vs PC3
Text: To further understand intracellular trafficking of the Nterm heterobiligand, these dye-labeled compounds were imaged by fluorescence microscopy. The cells were counterstained with BioTracker 490, which stains membranes, and Rab5a+, an endosomal stain. […] Low levels of DyLight650 was detected within PC-3 (FOLR1−) cells. Taken together, internalization of the heterobiligand appears to be receptor driven and selective for FOLR1 (+) cells.
as §6

Compound: C[C@H](O)[C@H]1NC(=O)[C@@H](Cc2cnc[nH]2)NC(=O)[C@@H](CO)NC(=O)[C@@H](Cc2cnc[nH]2)NC(=O)[C@@H](NC(=O)CC[C@H](NC(=O)c2ccc(NCc3cnc4nc(N)[nH]c(=O)c4n3)cc2)C(=O)O)Cc2cn(nn2)CCCC[C@@H](C(=O)NCC(=O)N[C@@H](Cc2ccccc2)C(=O)N[C@@H](CCCCNC(=O)CN2CCN(CC(=O)O)CCN(CC(=O)O)CCN(CC(=O)O)CC2)C(=O)O)NC(=O)[C@@H](C)NC1=O [Indi ^68Ga-7327, metal not drawn] ({Pteroyl-γGlu}-[Pra][dH][dS][dH][dT][dA][Lys(N3)]GFK(DOTA)-OH; triazole 1-7)
- kidney uptake [1]: significant reduction in kidney uptake
- tissue uptake per volume at 4 h ([2]; accumulation in the tumor): 1.55 %ID/mL

Compound: Cc1ccc(CCCC(=O)NCCCC[C@H](NC(=O)COCCOCCOCCNC(=O)[C@@H]2CCCCn3cc(nn3)C[C@H](NC(=O)CC[C@H](NC(=O)c3ccc(NCc4cnc5nc(N)[nH]c(=O)c5n4)cc3)C(=O)O)C(=O)N[C@H](Cc3c[nH]cn3)C(=O)N[C@H](CO)C(=O)N[C@H](Cc3c[nH]cn3)C(=O)N[C@H]([C@H](C)O)C(=O)N[C@H](C)C(=O)N2)C(=O)N[C@@H](CCCCNC(=O)CN2CCN(CC(=O)O)CCN(CC(=O)O)CCN(CC(=O)O)CC2)C(N)=O)cc1 [^68Ga-chelated compound #2809, metal not drawn] ({Pteroyl-γGlu}-[Pra][dH][dS][dH][dT][dA][Lys(N3)][AEEEA]K(Butanoyl(4-(4-MePh)))K(DOTA)-NH2; triazole 1-7)
- tissue uptake per volume at 4 h ([2]; 200 uCi, dose accumulation in the tumor): ~1.4 %ID/mL

Compound: C[C@H](O)[C@H]1NC(=O)[C@@H](Cc2cnc[nH]2)NC(=O)[C@@H](CO)NC(=O)[C@@H](Cc2cnc[nH]2)NC(=O)[C@@H](NC(=O)CC[C@H](NC(=O)c2ccc(NCc3cnc4nc(N)[nH]c(=O)c4n3)cc2)C(=O)O)Cc2cn(nn2)CCCC[C@@H](C(=O)NCC(=O)N[C@@H](Cc2ccccc2)C(=O)N[C@@H](CCCCNC(=O)CON)C(=O)O)NC(=O)[C@@H](C)NC1=O [compound 3303, Fol-hshta-Gly-Phe-Lys(AO)] ({Pteroyl-γGlu}-[Pra][dH][dS][dH][dT][dA][Lys(N3)]GFK(X2)-OH; triazole 1-7)
- in vitro Assay Data (NEP assay) [3]: Cleavage of -G-F-K-
- half-life at 2 μM [4]: > 116 h
- half-life at 2 μM [5]: > 116 h

Compound: C[C@H](O)[C@H]1NC(=O)[C@@H](CCC(=O)O)NC(=O)[C@@H](CCC(=O)O)NC(=O)[C@@H](Cc2ccc(O)cc2)NC(=O)[C@@H](CCCCN)NC(=O)[C@@H](NC(=O)[C@H](Cc2cn(CCOCCOCCOCCNC(=O)CC[C@H](NC(=O)c3ccc(NCc4cnc5nc(N)[nH]c(=O)c5n4)cc3)C(=O)O)nn2)NC(=O)CCOCCOCCOCCOCCOCCOCCOCCOCCOCCOCCNC(=O)CCOCCOCCOCCOCCOCCOCCOCCOCCOCCOCCNC(=O)CCCC[C@@H]2SC[C@@H]3NC(=O)N[C@@H]32)Cc2cn(nn2)CCCC[C@@H](C(N)=O)NC1=O [folate-kyeet heterobiligand]
- selectivity for FOLR1 (+) cells [6]: Virtually complete selectivity
- selectivity for FOLR1 (+) cells over FOLR1 (−) cells [7]: high selectivity for FOLR1 (+) cells

Compound: GI48-GA: albumin-binding domain, fragment of protein G from Streptococcus strain GI48 (SEQ ID NO:33) (LAEAKVLANRELDKYGVSDYYKNLINNAKTVEGVKALIDEILAA)
- Kd [8]: 1 nM

Compound: heterobiligand labeled with DyLight 650: folate-hshta Nterm heterobiligand labeled with the dye DyLight 650 ([dH][dS][dH][dT][dA]; not fully specified (N-terminus); printed as hshta; also: labeled with DyLight 650, place not given here, heterobiligand)
- internalized fraction in acid wash (pH 3.0) assay [9]: high percentage
- internalization / intracellular localization [10]: internalization with clear preference for early endosomes
- internalization / intracellular localization ([10]; listed as DyLight650-labeled peptide-folate heterobiligand): Selective internalization into OVCAR3 (FOLR+) cells
